{"source": "paper PMC2615623", "about": "(Nucleic Acids Research, 2008)", "binders": {"B1": {"name": "His-tagged human RNASEH2A (natural protein, UniProt O75792 1-299, looked up)", "chain": "MDLSELERDNTGRCRLSSPVPAVCRKEPCVLGVDEAGRGPVLGPMVYAICYCPLPRLADLEALKVADSKTLLESERERLFAKMEDTDFVGWALDVLSPNLISTSMLGRVKYNLNSLSHDTATGLIQYALDQGVNVTQVFVDTVGMPETYQARLQQSFPGIEVTVKAKADALYPVVSAASICAKVARDQAVKKWQFVEKLQDLDTDYGSGYPNDPKTKAWLKEHVEPVFGFPQFVRFSWRTAQTILEKEAEDVIWEDSASENQEGLRKITSYFLNEGSQARPRSSHRYFLERGLESATSL"}}, "key": {"[1]": {"target": "T1, His-tagged human RNASEH2C (human, UniProt Q8TDP1 1-164)", "T1 sequence (looked up)": "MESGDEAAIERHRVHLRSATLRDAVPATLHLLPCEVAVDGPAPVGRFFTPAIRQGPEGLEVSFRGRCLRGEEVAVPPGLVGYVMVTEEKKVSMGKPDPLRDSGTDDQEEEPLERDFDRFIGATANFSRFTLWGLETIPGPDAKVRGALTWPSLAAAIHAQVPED", "assay": "SEC"}, "[2]": {"target": "T2, His-tagged human RNASEH2B (human, UniProt Q5TBB1 1-312)", "T2 sequence (looked up)": "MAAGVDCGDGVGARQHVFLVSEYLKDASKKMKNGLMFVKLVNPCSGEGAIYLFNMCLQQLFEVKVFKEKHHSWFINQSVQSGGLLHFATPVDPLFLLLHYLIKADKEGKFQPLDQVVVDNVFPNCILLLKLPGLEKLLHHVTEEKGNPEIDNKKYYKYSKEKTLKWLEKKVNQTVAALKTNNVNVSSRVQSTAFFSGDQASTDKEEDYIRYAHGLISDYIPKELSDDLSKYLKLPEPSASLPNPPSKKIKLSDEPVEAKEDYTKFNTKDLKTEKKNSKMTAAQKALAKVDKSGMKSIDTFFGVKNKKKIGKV", "assay": "SEC"}}, "data": [{"binder": "B1", "values": [{"measurement": "stoichiometry N", "setting": "[1]", "result": "1 A:B:C"}, {"measurement": "stoichiometry N", "setting": "[2]", "result": "1 A:B:C"}]}]}
